Measurements: paper PMC13083928, “ALS mutations disrupt self-association between the ubiquilin STI1 hydrophobic groove and internal placeholder sequences” (The EMBO Journal, 2026)

Legend:
[1] = target: 3xHA-Sec61β soluble domain-Omp25 TMD-3F4 (single substrate); details: 3 μM recombinant 3xFLAG-UBQLN2 variants; parent: est. 49; read off a plot
[2] = target: the molecule itself; experiment: crystal structure; STI1-FrzS-TMD fusion construct; hanging-drop vapor diffusion at 4 °C, 2.5% MPD, 100 mM Tris pH 8.5; 1.98 Å

3xFLAG-UBQLN2 (wild type), recombinant (from UniProt Q9UHD9) M446R
response (Elution / Input) [1]: 57

3xFLAG-UBQLN2 (wild type), recombinant (from UniProt Q9UHD9) P440L
response (Elution / Input) [1]: 54

B1: variant of the VAMP2 TMD, as it stands in the crystallization construct (peptide)
peptide: MMIALGVACAIALAIAAVYF
notes: variant of the VAMP2 TMD; Written as a molecule of its own because it is joined with the STI1 domain on one chain for the structure; in the experiment it was part of m1; source: part of the STI1-FrzS-TMD fusion; E. coli BL21 DE3 pRIL, purified (Ni-NTA, SEC)
binding result [2]: binds
